Test results published in article PMC9482650, “Quantitative fragmentomics allow affinity mapping of interactomes” (Nature Communications, 2022).

T1: SNTG1, Q9NSN8
T1 sequence (Q9NSN8 52-150, limits assumed, looked up): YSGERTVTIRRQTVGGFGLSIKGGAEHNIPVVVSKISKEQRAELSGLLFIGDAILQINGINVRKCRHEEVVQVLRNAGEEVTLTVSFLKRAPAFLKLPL

T2: APBA3_1, O96018
T2 sequence (O96018 389-490, limits assumed, looked up): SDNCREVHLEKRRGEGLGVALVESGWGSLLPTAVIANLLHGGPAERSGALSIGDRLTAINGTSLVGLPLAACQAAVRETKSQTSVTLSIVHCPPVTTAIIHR

T3: APBA2_1, Q99767
T3 sequence (Q99767 563-664, limits assumed, looked up): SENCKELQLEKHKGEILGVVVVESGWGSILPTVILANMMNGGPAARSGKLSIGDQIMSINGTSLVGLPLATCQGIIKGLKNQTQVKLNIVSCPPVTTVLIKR

T4: MPP6, Q9NZW5
T4 sequence (Q9NZW5 125-219, limits assumed, looked up): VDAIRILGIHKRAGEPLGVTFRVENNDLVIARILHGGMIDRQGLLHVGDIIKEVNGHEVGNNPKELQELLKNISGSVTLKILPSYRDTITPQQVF

T5: DLG3_3, Q92796
T5 sequence (Q92796 374-475, limits assumed, looked up): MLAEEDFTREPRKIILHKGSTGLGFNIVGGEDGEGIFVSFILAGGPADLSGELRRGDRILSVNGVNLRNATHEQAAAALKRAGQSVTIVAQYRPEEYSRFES

T6: DFNB31_2, Q9P202
T6 sequence (Q9P202 274-371, limits assumed, looked up): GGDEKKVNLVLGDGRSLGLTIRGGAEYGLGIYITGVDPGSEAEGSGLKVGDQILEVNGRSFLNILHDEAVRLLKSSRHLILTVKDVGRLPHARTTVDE

T7: SNTA1, Q13424
T7 sequence (Q13424 82-180, limits assumed, looked up): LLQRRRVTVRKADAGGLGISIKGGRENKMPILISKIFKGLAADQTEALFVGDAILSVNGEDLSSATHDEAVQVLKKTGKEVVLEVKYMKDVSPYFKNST

T8: DFNB31_3, Q9P202
T8 sequence (Q9P202 811-907, limits assumed, looked up): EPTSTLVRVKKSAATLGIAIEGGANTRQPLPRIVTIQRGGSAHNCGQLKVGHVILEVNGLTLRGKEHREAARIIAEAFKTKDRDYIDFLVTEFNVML

T9: PARD3B_1, Q8TEW8
T9 sequence (Q8TEW8 196-299, limits assumed, looked up): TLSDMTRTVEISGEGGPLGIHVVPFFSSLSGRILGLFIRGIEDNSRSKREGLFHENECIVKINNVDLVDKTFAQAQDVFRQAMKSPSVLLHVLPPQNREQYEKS

T10: DLG3_2, Q92796
T10 sequence (Q92796 221-321, limits assumed, looked up): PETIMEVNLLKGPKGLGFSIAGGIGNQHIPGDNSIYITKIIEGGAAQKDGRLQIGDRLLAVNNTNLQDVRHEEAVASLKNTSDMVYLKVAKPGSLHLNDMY

T11: HTRA3, P83110
T11 sequence (P83110 354-453, limits assumed, looked up): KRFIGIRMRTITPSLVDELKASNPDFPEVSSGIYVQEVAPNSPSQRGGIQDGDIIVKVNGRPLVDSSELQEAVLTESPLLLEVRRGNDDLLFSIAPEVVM


How the values were obtained:
Assay in all cases: holdup assay
Parameters in all cases: key: below the threshold = too weak to quantify, mostly under pKd 3.1 to 4
Conditions in all cases: plain residues with an end cap or a label only (N-terminal biotin on a linker: ado-ado)
NHERF2_2, Q15599 = biological target: NHERF2_2, Q15599
NHERF2_2, Q15599, sequence (Q15599 142-238): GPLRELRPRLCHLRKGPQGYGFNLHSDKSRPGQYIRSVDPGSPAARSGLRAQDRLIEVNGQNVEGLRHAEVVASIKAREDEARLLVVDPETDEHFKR

SNTG1, Q9NSN8 = biological target: T1, SNTG1, Q9NSN8
SCRIB_1, Q14160 = biological target: SCRIB_1, Q14160
SCRIB_1, Q14160, sequence (Q14160 718-814): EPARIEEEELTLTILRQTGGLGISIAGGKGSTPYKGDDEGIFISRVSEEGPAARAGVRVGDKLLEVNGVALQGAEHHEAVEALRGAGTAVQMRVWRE

MAST1, Q9Y2H9 = biological target: MAST1, Q9Y2H9
MAST1, Q9Y2H9, sequence (Q9Y2H9 962-1065): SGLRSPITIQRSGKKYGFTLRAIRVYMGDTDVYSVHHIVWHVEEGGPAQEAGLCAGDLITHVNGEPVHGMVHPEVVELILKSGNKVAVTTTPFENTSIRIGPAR

GRIP2_5, Q9C0E4 = biological target: GRIP2_5, Q9C0E4
GRIP2_5, Q9C0E4, sequence (Q9C0E4 544-642): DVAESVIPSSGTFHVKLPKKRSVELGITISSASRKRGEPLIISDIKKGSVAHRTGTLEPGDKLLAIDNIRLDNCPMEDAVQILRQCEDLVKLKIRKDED

HTRA1, Q92743 = biological target: HTRA1, Q92743
HTRA1, Q92743, sequence (Q92743 360-477): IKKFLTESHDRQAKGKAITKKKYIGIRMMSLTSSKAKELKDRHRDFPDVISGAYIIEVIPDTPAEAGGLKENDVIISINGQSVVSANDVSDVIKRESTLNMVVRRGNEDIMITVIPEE

APBA3_1, O96018 = biological target: T2, APBA3_1, O96018
APBA2_1, Q99767 = biological target: T3, APBA2_1, Q99767
MPP6, Q9NZW5 = biological target: T4, MPP6, Q9NZW5
MAGI2_4, Q86UL8 = biological target: MAGI2_4, Q86UL8
MAGI2_4, Q86UL8, sequence (Q86UL8 772-865): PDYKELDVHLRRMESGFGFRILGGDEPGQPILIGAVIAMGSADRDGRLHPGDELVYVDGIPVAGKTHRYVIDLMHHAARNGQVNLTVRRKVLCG

Inadl_9, Q8NI35 = biological target: Inadl_9, Q8NI35
Inadl_9, Q8NI35, sequence (Q8NI35 1530-1615): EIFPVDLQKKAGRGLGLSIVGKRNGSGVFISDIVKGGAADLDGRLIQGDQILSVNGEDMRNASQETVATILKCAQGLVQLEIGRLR

Inadl_6, Q8NI35 = biological target: Inadl_6, Q8NI35
Inadl_6, Q8NI35, sequence (Q8NI35 1058-1167): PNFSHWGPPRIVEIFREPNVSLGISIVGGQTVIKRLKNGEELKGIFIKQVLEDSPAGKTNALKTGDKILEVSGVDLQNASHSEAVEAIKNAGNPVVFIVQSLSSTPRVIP

DLG3_3, Q92796 = biological target: T5, DLG3_3, Q92796
LNX1_2, Q8TBB1 = biological target: LNX1_2, Q8TBB1
LNX1_2, Q8TBB1, sequence (Q8TBB1 371-470): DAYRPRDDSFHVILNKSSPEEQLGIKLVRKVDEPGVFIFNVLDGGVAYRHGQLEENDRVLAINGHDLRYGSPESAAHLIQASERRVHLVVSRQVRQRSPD

IL16_1, Q14005 = biological target: IL16_1, Q14005
IL16_1, Q14005, sequence (Q14005 210-306): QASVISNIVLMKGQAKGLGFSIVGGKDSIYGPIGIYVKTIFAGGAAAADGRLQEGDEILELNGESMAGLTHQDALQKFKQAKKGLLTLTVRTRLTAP

DFNB31_2, Q9P202 = biological target: T6, DFNB31_2, Q9P202
SNTA1, Q13424 = biological target: T7, SNTA1, Q13424
DFNB31_3, Q9P202 = biological target: T8, DFNB31_3, Q9P202
PARD3B_1, Q8TEW8 = biological target: T9, PARD3B_1, Q8TEW8
IL16_4, Q14005 = biological target: IL16_4, Q14005
IL16_4, Q14005, sequence (Q14005 1229-1329): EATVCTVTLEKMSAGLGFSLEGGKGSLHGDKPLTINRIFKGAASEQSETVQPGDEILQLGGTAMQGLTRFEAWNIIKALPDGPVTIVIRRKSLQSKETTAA

DLG3_2, Q92796 = biological target: T10, DLG3_2, Q92796
HTRA3, P83110 = biological target: T11, HTRA3, P83110
Inadl_2, Q8NI35 = biological target: Inadl_2, Q8NI35
Inadl_2, Q8NI35, sequence (Q8NI35 238-335): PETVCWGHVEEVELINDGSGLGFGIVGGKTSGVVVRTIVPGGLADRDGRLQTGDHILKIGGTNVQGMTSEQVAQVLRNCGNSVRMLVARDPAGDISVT

LAP2, Q96RT1 = biological target: LAP2, Q96RT1
LAP2, Q96RT1, sequence (Q96RT1 other isoform, or with tags, fused parts or gaps): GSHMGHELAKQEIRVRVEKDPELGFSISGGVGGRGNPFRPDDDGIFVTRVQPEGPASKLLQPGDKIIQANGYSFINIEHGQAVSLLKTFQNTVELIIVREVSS

GRASP, Q7Z6J2 = biological target: GRASP, Q7Z6J2
GRASP, Q7Z6J2, sequence (Q7Z6J2 96-193): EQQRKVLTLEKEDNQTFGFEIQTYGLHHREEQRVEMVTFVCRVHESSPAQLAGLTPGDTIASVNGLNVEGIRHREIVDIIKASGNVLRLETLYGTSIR

DLG4_3, P78352 = biological target: DLG4_3, P78352
DLG4_3, P78352, sequence (P78352 306-403): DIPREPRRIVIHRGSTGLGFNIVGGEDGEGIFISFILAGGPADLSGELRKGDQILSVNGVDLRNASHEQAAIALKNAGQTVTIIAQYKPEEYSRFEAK

Binder | pKd (NHERF2_2, Q15599) | pKd (SNTG1, Q9NSN8) | pKd (SCRIB_1, Q14160) | pKd (MAST1, Q9Y2H9) | pKd (GRIP2_5, Q9C0E4) | pKd (HTRA1, Q92743) | pKd (APBA3_1, O96018) | pKd (APBA2_1, Q99767) | pKd (MPP6, Q9NZW5) | pKd (MAGI2_4, Q86UL8) | pKd (Inadl_9, Q8NI35) | pKd (Inadl_6, Q8NI35) | pKd (DLG3_3, Q92796) | pKd (LNX1_2, Q8TBB1) | pKd (IL16_1, Q14005) | pKd (DFNB31_2, Q9P202) | pKd (SNTA1, Q13424) | pKd (DFNB31_3, Q9P202) | pKd (PARD3B_1, Q8TEW8) | pKd (IL16_4, Q14005) | other results
RFQQRMQTHV [KIRREL1, Q96J84] | 3.57 | below the threshold | 4.25 | 4.76 | below the threshold | below the threshold | below the threshold | below the threshold | below the threshold | 3.76 | below the threshold | below the threshold | 3.94 | below the threshold | below the threshold | below the threshold | below the threshold | 3.62 | below the threshold | below the threshold | pKd (DLG3_2, Q92796): 4.69; pKd (HTRA3, P83110): below the threshold; pKd (Inadl_2, Q8NI35): below the threshold; pKd (LAP2, Q96RT1): below the threshold; pKd (GRASP, Q7Z6J2): 4.35; pKd (DLG4_3, P78352): 4.4
APIAGFSSFV [SDK2, Q58EX2] | 3.98 | 3.83 | below the threshold | below the threshold | below the threshold | 4.51 | below the threshold | below the threshold | below the threshold | 3.94 | 3.96 | 3.72 | below the threshold | below the threshold | 4.06 | 3.52 | 4.09 | below the threshold | 3.75 | below the threshold | pKd (DLG3_2, Q92796): 4.07; pKd (HTRA3, P83110): 4.49; pKd (Inadl_2, Q8NI35): below the threshold; pKd (LAP2, Q96RT1): 4.17; pKd (GRASP, Q7Z6J2): 4.44; pKd (DLG4_3, P78352): below the threshold
EDPRVEVTQF [SLC22A9, Q8IVM8] | 4.61 | below the threshold | 3.91 | 4.75 | below the threshold | 3.49 | below the threshold | below the threshold | below the threshold | below the threshold | below the threshold | below the threshold | below the threshold | below the threshold | below the threshold | below the threshold | below the threshold | 3.84 | 4.26 | below the threshold | pKd (DLG3_2, Q92796): 4.17; pKd (HTRA3, P83110): below the threshold; pKd (Inadl_2, Q8NI35): below the threshold; pKd (LAP2, Q96RT1): below the threshold; pKd (GRASP, Q7Z6J2): 5.02; pKd (DLG4_3, P78352): below the threshold
LAHVKHKEQI [AQP3, Q92482] | below the threshold | below the threshold | below the threshold | below the threshold | below the threshold | below the threshold | below the threshold | below the threshold | below the threshold | below the threshold | below the threshold | below the threshold | below the threshold | below the threshold | below the threshold | below the threshold | below the threshold | below the threshold | below the threshold | below the threshold | pKd (DLG3_2, Q92796): below the threshold; pKd (HTRA3, P83110): below the threshold; pKd (Inadl_2, Q8NI35): below the threshold; pKd (LAP2, Q96RT1): below the threshold; pKd (GRASP, Q7Z6J2): below the threshold; pKd (DLG4_3, P78352): below the threshold
